Laboratory results as given in publication PMC7881012, “Human ACE2 peptide-mimics block SARS-CoV-2 pulmonary cells infection” (Communications Biology, 2021).
Ends that are not written are not given here.

Target: T1, Fc-tagged 2019-nCoV RBD-SD1 (SARS-CoV-2 (2019-nCoV), UniProt P0DTC2 319-591)
T1 construct: source: bought: Sanyou Biopharmaceuticals Co. Ltd
Experiment: BLI
Conditions: both partners purified

| Binder | Kd [pM] |
| --- | --- |
| SALEEQYKTFLDKFMHELEDLLYQLAL (designed binder, also called peptide P10; source: synthetic peptide (solid-phase synthesis on rink amide resin, HPLC purified)) [P10] | 30 ± 10 |
| SALEEQYKTFLDKFMHELEDLLYQLSL (designed binder, also called peptide P9) [P9] | 90 ± 80 |
| SALEEQLKTFLDKFMHELEDLLYQLAL-NH2 (designed binder, also called peptide P8) [P8] | 24000 ± 11000 |
